Residue numbers refer to the chain shown, from its start.
How the values were obtained:
mouse serum albumin [1] = target: T1, mouse serum albumin (mouse, UniProt P07724 25-608); assay: SPR
T1 construct: mature; Bought purified serum albumin; also called MSA; Mouse albumin
Procedure: (§1) For analysis at pH 7.0, 6.0, 5.5 and 5.0, a running buffer of 40 mM citric acid, 80 mM sodium phosphate 50 mM NaCl, 3 mM EDTA, 0.05% v/v P20 was used. The required pH was achieved by altering the ratio of citric acid to sodium phosphate. All experiments were performed at 25° C. The antibody samples were captured to the sensor chip surface using either a human F(ab′)₂-specific or human Fc-specific goat Fab (Jackson ImmunoResearch). Covalent immobilisation of the capture antibody was achieved by standard amine coupling chemistry to a level of 6000-7000 response units (RU).
(§2) Each assay cycle consisted of firstly capturing the antibody sample using a 1 min injection, before an association phase consisting of a 3 min injection of albumin, after which dissociation was monitored. After each cycle, the capture surface was regenerated with two 1 min injections of 40 mM HCl followed by 30 s of 5 mM NaOH. The flow rates used were 10 μl/min for capture, 30 μl/min for both the association and dissociation phases, and 10 μl/min for regeneration. A blank flow-cell was used for reference subtraction and buffer-blank injections were included to subtract instrument noise and drift.

human serum albumin [2] = target: T2, human serum albumin (human, UniProt P02768 25-609); assay: SPR, Fab captured, albumin titrated
T2 construct: mature; Bought purified serum albumin; also called HSA; Human albumin
Procedure: as §1, §2

mouse serum albumin [3] = target: T1, mouse serum albumin; assay: SPR, Fab captured, albumin titrated
Procedure: as §1, §2

human serum albumin [4] = target: T2, human serum albumin; assay: SPR, Fab captured, HSA
Procedure: as §1, §2

human serum albumin [5] = target: T2, human serum albumin; assay: SPR, HSA
Procedure: as §1, §2

rat serum albumin [6] = target: T3, rat serum albumin (rat, UniProt P02770 25-608); assay: SPR, humanized IgG1
T3 construct: mature; Bought purified serum albumin; also called RSA; Rat albumin
Procedure: as §1, §2

human serum albumin [7] = target: T2, human serum albumin; assay: SPR, humanized IgG1
Procedure: as §1, §2

mouse serum albumin [8] = target: T1, mouse serum albumin; assay: SPR, humanized IgG1
Procedure: as §1, §2

human serum albumin [9] = target: T2, human serum albumin; assay: SPR, Fab captured; albumin taken as HSA;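 further: captured antibody exposed to albumin for 3 min association, then dissociation followed, with blank flow-cell reference and buffer-blank injections subtracted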
Procedure: as §2

human serum albumin [10] = target: T2, human serum albumin; assay: SPR, rabbit Fab
mouse serum albumin [11] = target: T1, mouse serum albumin; assay: SPR, rabbit Fab
rat serum albumin [12] = target: T3, rat serum albumin; assay: FMAT, B cell supernatant

B1: CA645 gL5gH5 Fab (Fab, V domains shown)
VH: EVQLLESGGGLVQPGGSLRLSCAVSGIDLSNYAINWVRQAPGKGLEWIGIIWASGTTFYATWAKGRFTISRDNSKNTVYLQMNSLRAEDTAVYYCARTVPGYSTAPYFDLWGQGTLVTVSS
VL: DIQMTQSPSSVSASVGDRVTITCQSSPSVASNFLSWYQQKPGKAPKLLIYEASKLTSGVPSRFSGSGSGTDFTLTISSLQPEDFATYYCGGGYSSISDTTFGGGTKVEIK
notes: Fab: human gamma1 CH1, human kappa (Km3); Kabat numbering
B1 was tested, and the “fold weaker affinity for MSA than for HSA” value (mouse serum albumin [1]) was 1.2 fold, the Kd (human serum albumin [2]) was 254 nM and the koff (human serum albumin [2]) was 0.022 s⁻¹. For the same binder, the kon (human serum albumin [2]) was 85000 M⁻¹ s⁻¹, the Kd (mouse serum albumin [3]) was 316 nM and the koff (mouse serum albumin [3]) was 0.0038 s⁻¹. The kon (mouse serum albumin [3]) was 12000 M⁻¹ s⁻¹, the Kd (human serum albumin [4]) was 453 nM and the koff (human serum albumin [4]) was 0.0571 s⁻¹. For the same binder, the kon (human serum albumin [4]) was 126000 M⁻¹ s⁻¹ and the “fold weaker affinity than gL4gH5” value (human serum albumin [5]) was 368 fold.

B2: CA645 humanized IgG1 (conservative graft gL1gH1) (antibody, V domains shown)
VH: EVQLLESGGGLVQPGGSLRLSCAVSGIDLSNYAINWVRQAPGKGLEWIGIIWASGTTFYATWAKGRFTISRDSTTVYLQMNSLRAEDTAVYYCARTVPGYSTAPYFDLWGQGTLVTVSS
VL: B1 VL with Q3V, A30W, S64K
notes: Human IgG1, full human gamma1 constant region, human kappa constant region (Km3 allotype); also called CA645 gL1gH1
Binder B2 has a Kd (rat serum albumin [6]) of 7.9 nM, a Kd (human serum albumin [7]) of 0.82 nM and a Kd (mouse serum albumin [8]) of 2.9 nM.

B3: CA645 gL31gH5 Fab (Fab, V domains shown)
VH: B1 VH
VL: B1 VL with A30W, S68T
notes: as for B1
B3 showed a Kd (human serum albumin [9]) of 2.49 nM, a koff (human serum albumin [9]) of 0.000142 s⁻¹ and a kon (human serum albumin [9]) of 57200 M⁻¹ s⁻¹.

B4: CA645 gL29gH5 Fab (Fab, V domains shown)
VH: B1 VH
VL: B1 VL with A30W, S68V
notes: as for B1
Binder B4 has a Kd (human serum albumin [9]) of 1.78 nM, a koff (human serum albumin [9]) of 0.000103 s⁻¹ and a kon (human serum albumin [9]) of 57700 M⁻¹ s⁻¹.

B5: CA645 gL33gH5 Fab (Fab, V domains shown)
VH: B1 VH
VL: B1 VL with A30W, S68E
notes: as for B1
Work on B5 yielded a Kd (human serum albumin [9]) of 3.32 nM, a koff (human serum albumin [9]) of 0.000179 s⁻¹ and a kon (human serum albumin [9]) of 54000 M⁻¹ s⁻¹.

B6: CA645 gL28gH5 Fab (Fab, V domains shown)
VH: B1 VH
VL: B1 VL with A30W, S68L
notes: as for B1
Work on B6 yielded a Kd (human serum albumin [9]) of 1.85 nM, a koff (human serum albumin [9]) of 0.000109 s⁻¹ and a kon (human serum albumin [9]) of 59000 M⁻¹ s⁻¹.

B7: CA645 gL30gH5 Fab (Fab, V domains shown)
VH: B1 VH
VL: B1 VL with A30W, S68I
notes: as for B1
In the case of B7, the Kd (human serum albumin [9]) is reported as 1.61 nM, the koff (human serum albumin [9]) is reported as 9.4e-05 s⁻¹ and the kon (human serum albumin [9]) is reported as 58400 M⁻¹ s⁻¹.

B8: CA645 gL32gH5 Fab (Fab, V domains shown)
VH: B1 VH
VL: B1 VL with A30W, S68Q
notes: as for B1
Binder B8 has a Kd (human serum albumin [9]) of 2.44 nM, a koff (human serum albumin [9]) of 0.000143 s⁻¹ and a kon (human serum albumin [9]) of 58600 M⁻¹ s⁻¹.

B9: CA645 recombinant rabbit Fab (Fab, V domains shown)
VH: QSLEESGGRLVTPGTPLTLTCTVSGIDLSNYAINWVRQAPGKGLEWIGIIWASGTTFYATWAKGRFTISRPSTTVDLEMTSLTTADTATYFCARTVPGYSTAPYFDLWGPGTLVTVSS
VL: AAVLTQTPSPVSAAVGGTVTINCQSSPSVWSNFLSWYQQKPGQPPKLLIYEASKLTSGVPSRFKGSGSGTQFTLTISDVQCGDAATYYCGGGYSSISDTTFGGGTKVVVK
notes: Fab with rabbit heavy CH1 and rabbit light chain constant region
Work on B9 yielded a Kd (human serum albumin [10]) of 0.31 nM and a Kd (mouse serum albumin [11]) of 2.6 nM.

B10: CA645 rabbit antibody secreted in B cell supernatant (antibody, V domains shown)
VH: B9 VH
VL: B9 VL
notes: Rabbit IgG secreted by cultured B cells
With B10 the “fold difference of binding level to RSA against HSA” value (rat serum albumin [12]) was no more than 5 fold.
